Reference: US20240343823A1 (Ablynx, published 2024)
Like-named read-outs stand apart in the source and are kept apart here.

Key:
[1] = biological target: T1, TCRab on primary human T cells (human, UniProt P01848 1-140; P01850 1-176); experiment: competition flow cytometry on primary human T cells, competitor T017000624 at EC30 (2E-08 M)
T1 construct: whole, on cells; T cells isolated from buffy coats; also called Primary hu T cells; human TCR
T1 TCR alpha (looked up): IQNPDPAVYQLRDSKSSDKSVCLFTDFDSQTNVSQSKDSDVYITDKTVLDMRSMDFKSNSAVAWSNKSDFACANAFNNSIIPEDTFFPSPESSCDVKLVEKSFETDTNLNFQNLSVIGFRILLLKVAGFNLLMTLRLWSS
T1 TCR beta (looked up): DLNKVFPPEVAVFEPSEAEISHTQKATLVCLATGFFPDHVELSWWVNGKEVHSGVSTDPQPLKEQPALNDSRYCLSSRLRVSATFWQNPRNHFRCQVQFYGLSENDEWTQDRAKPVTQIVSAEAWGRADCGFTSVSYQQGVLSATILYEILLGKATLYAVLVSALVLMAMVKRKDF
Experimental: (§1) T cells (human T cells obtained as described in Example 3 and cyno T cells purchased from LPT laboratory, Germany) were thawed and counted on the day of the assay and diluted to a concentration of 1E+06 cells/mL, before adding 75 μL to the wells of a V-bottom 96-well plate (Greiner, cat no 651180). Cells were washed once with cold FACS buffer, before adding 25 μL Nb and 25 μL competitor to the wells. […] Cells were resuspended and plates were incubated at 4° C. for 90 minutes, after which plates were washed twice in cold FACS buffer. Cells were resuspended in 50 μl 1/1000 diluted Monoclonal ANTI-FLAG® M2 (Sigma Aldrich, cat no F1804) in FACS buffer and incubated at 4° C. for 30 minutes. Plates were washed twice in cold FACS buffer. […] Plates were washed twice in cold FACS buffer. Cells were resuspended in 55 μL 1/1000 diluted Propidium Iodide (Sigma-Aldrich, cat no P4170) in FACS buffer before acquiring data on the MACSQuant X (Miltenyi biotec).

[2] = biological target: T2, TCRab on primary cyno T cells (cynomolgus); experiment: competition flow cytometry on cyno T cells, competitor T017000623 at EC30 (5E-08 M)
T2 construct: whole, on cells; also called Primary cy T cells; cyno TCR
Experimental: as §1

[3] = biological target: T3, cyno TCRab, in house produced (extracellular domains fused to a zipper peptide) (cynomolgus); experiment: SPR ProteOn XPR36, TCRab immobilized by amine coupling, 1:1 model
T3 construct: Numbering of the four differences is not explained; not shown: variable domains, if any; any residues beyond C131 of the beta chain
T3 alpha: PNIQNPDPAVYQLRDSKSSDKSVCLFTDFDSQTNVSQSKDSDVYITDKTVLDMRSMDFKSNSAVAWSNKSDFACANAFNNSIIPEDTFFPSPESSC
T3 beta: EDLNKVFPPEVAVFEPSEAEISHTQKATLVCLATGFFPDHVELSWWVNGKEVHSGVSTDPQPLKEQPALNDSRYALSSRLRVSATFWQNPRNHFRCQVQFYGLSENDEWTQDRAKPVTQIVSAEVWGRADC
Experimental: (§2) Recombinant TCR proteins were immobilized on a GLC Sensor Chip (Biorad) via amine coupling, using EDC and NHS chemistry (running buffer: HBS-EP+, pH 7.4). Purified ISVDs were injected for 2 minutes (flow rate 45 μL/min) at different concentrations (between 0.2 nM and 200 nM) and dissociation was followed for 900 s. Regeneration was performed by injecting 3 M MgCl₂ for 3 minutes (flow rate 90 μL/min). Data was double referenced by subtracting a reference ligand lane and a blank buffer injection. Processed sensorgrams were analyzed based on the 1:1 interaction model (Langmuir binding model) using ProteOn Manager 3.1.0 (Version 3.1.0.6) software.

[4] = biological target: T4, human GPC3 on tumor cell lines (HepG2, Huh-7, NCI-H661, MKN-45, NCI-H23, BxPC-3, NCI-H292) (human, UniProt P51654 25-554); experiment: pHAb internalization assay on Huh-7 cells, flow cytometry (BD FACSArray, yellow laser); indirect readout that needs binding and uptake; concentration not given
T4 construct: Endogenous GPC3 of human cancer cell lines; also called GPC3 on HepG2; GPC3 on Huh-7
Experimental: The assay was read on a BD FACSArray with a yellow laser (pHAb: excitation maximum at 532 nm, emission maximum at 560 nm). The internalization rate was determined by quantifying the internalization at 37° C. at different timepoints (0.5 h, 3 h, 24 h and 48 h) compared to 4° C. at 0.5 h (Table 10, FIG. 8A).

[5] = biological target: T5, human GPC3 expressed on CHO Flp-In cells (human, UniProt P51654 25-554); experiment: flow cytometry, periplasmic extract on CHO Flp-In human GPC3 against parental CHO
T5 construct: On cells; Q25-R358, S359-H580; also called hGPC3 CHO; CHO huGPC3
Experimental: (§3) Periplasmic extracts were screened for human and cyno GPC3 binding in flow cytometry using CHO Flp-In cells (Invitrogen cat nr. K6010) expressing either human GPC3 (accession number P51654; Q25-R358, S359-H580) or cyno GPC3 (accession number P51654; Q3-R358; S359-H559), respectively. In brief, 1×10⁵ cells were incubated in 1:5 diluted periplasmic extracts for 30 min at 4° C., and then washed 3 times. As a control, the parental CHO Flp-In cell line (Invitrogen cat nr. K6010) was included. […] Samples were washed and resuspended in FACS Buffer (D-PBS (Gibco) with 10% FBS (Sigma) and 0.05% sodium azide (Merck)) supplemented with 5 nM TOPRO3 (Molecular Probes, cat nr T3605). Cell suspensions were then analyzed on a FACS Array. Gating was set on live, intact cells using forward/side scatter and TOPRO3 channel fluorescence parameters.

[6] = biological target: T4, human GPC3 on tumor cell lines (HepG2, …); experiment: flow cytometry on Huh-7 cells
[7] = biological target: T6, cyno GPC3 expressed on CHO Flp-In cells (cynomolgus); experiment: flow cytometry on CHO Flp-In cyno GPC3 cells
T6 construct: range 3-559; On cells; also called cyGPC3 CHO; CHO-cGPC3

[8] = biological target: T4, human GPC3 on tumor cell lines (HepG2, …); experiment: flow cytometry on HepG2 cells
[9] = biological target: T6, cyno GPC3 expressed on CHO Flp-In cells; experiment: flow cytometry, periplasmic extract on CHO Flp-In cyno GPC3 against parental CHO
Experimental: as §3

[10] = biological target: T7, recombinant human Glypican-3 (R&D Systems, cat nr. 2119-GP) (human, UniProt P51654 25-559); experiment: SPR ProteOn XPR36, periplasmic extract over coated human GPC3
T7 construct: Bought protein; also called human GPC3; hGPC3
Experimental: (§4) Off-rates of ISVDs were determined on a ProteOn XPR36 instrument (Bio-Rad Laboratories, Inc.). ProteOn GLC Sensor Chips were coated with cyno Glypican-3 AGPI-HIS (in-house produced; accession number P51654; Q3-R358; S359-H559) and human GPC3 (R&D Systems, cat nr. 2119-GP). Periplasmic extracts were diluted 1:10 in ProteOn PBS Tween buffer (PBS, pH 7.4, 0.005% Tween 20 (167-2720, BioRad)). Experiments were carried out at 25° C. Data obtained was double referenced by reference lane subtraction as well as subtraction of a blank buffer injection. Processed curves were used for off-rate analysis based on the Langmuir dissociation (off-rate analysis) model.

[11] = biological target: T8, cyno Glypican-3 delta-GPI-HIS, in-house produced (cynomolgus); experiment: SPR ProteOn XPR36, periplasmic extract over coated cyno GPC3
T8 construct: range 3-559; also called cyno GPC3; cyGPC3
Experimental: as §4

[12] = biological target: T9, cyno serum albumin (in house produced from animal tissue) (cynomolgus); experiment: SPR ProteOn XPR36, serum albumin immobilized by amine coupling, 1:1 model
T9 construct: also called cynomolgus serum albumin
Experimental: as §2, with “Serum albumin proteins” for “Recombinant TCR proteins”, “(between 0.24” for “(between 0.2”, “and 500” for “and 200”, “injecting 10 mM Glycine-HCl (pH 1.5)” for “injecting 3 M MgCl₂”, “for 47 seconds” for “for 3 minutes”, “rate 100” for “rate 90”

[13] = biological target: mouse serum albumin (DivBioScience cat no IMSA) (mouse, UniProt P07724 25-608); experiment: as above
Experimental: as §2, with “Serum albumin proteins” for “Recombinant TCR proteins”, “(between 0.24” for “(between 0.2”, “and 500” for “and 200”, “injecting 10 mM Glycine-HCl (pH 1.5)” for “injecting 3 M MgCl₂”, “for 47 seconds” for “for 3 minutes”, “rate 100” for “rate 90”

[14] = biological target: T10, human serum albumin (Sigma cat no A8763) (human, UniProt P02768 25-609); experiment: as above
T10 construct: also called HSA
Experimental: as §2, with “Serum albumin proteins” for “Recombinant TCR proteins”, “(between 0.24” for “(between 0.2”, “and 500” for “and 200”, “injecting 10 mM Glycine-HCl (pH 1.5)” for “injecting 3 M MgCl₂”, “for 47 seconds” for “for 3 minutes”, “rate 100” for “rate 90”

[15] = biological target: T4, human GPC3 on tumor cell lines (HepG2, …); experiment: flow cytometry on HepG2 cells; remark: listed apart in the source
[16] = biological target: T6, cyno GPC3 expressed on CHO Flp-In cells; experiment: flow cytometry on CHO Flp-In cyno GPC3 cells; remark: listed apart in the source
[17] = biological target: T4, human GPC3 on tumor cell lines (HepG2, …); experiment: flow cytometry on Huh-7 cells; remark: listed apart in the source

mouse serum albumin (DivBioScience cat no IMSA), sequence (P07724 25-608 limits assumed): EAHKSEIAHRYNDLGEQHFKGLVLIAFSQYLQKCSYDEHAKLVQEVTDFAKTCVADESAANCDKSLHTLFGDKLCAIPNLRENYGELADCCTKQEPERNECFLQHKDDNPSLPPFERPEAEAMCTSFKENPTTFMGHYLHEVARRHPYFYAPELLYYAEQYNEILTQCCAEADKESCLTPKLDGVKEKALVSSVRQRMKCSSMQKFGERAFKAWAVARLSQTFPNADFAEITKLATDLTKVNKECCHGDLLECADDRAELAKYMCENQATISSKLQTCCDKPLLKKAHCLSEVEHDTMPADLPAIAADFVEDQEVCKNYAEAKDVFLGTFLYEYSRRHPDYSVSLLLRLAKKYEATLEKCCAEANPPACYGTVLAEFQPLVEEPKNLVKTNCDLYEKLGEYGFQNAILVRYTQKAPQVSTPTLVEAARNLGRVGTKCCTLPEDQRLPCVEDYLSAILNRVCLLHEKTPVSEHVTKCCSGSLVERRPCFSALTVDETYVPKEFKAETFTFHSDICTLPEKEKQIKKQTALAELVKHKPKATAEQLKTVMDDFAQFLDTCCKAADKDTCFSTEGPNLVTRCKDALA
T9 sequence (A2V9Z4 25-608): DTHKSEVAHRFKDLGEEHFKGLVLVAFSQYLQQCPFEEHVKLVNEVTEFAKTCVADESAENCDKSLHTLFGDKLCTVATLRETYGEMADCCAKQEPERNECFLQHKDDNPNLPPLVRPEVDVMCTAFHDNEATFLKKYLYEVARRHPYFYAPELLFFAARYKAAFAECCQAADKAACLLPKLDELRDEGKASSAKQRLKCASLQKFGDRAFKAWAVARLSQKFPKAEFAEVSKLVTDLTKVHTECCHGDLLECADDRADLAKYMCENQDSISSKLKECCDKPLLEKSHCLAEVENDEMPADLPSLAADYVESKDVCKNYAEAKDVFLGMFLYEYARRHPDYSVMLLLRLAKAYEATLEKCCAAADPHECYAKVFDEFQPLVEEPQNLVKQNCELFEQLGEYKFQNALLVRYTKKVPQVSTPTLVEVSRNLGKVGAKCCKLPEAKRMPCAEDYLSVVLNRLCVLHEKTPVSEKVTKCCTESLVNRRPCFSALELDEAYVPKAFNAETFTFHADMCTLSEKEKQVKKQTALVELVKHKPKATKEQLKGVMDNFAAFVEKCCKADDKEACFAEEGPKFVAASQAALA

B1: T017000698 (bispecific antibody)
chain: DVQLVESGGGVVQPGGSLRLSCVASGYVHKINFYGWYRQAPGKEREKVAHISIGDQTDYADSAKGRFTISRDESKNTVYLQMNSLRPEDTAAYYCRALSRIWPYDYWGQGTLVTVSSGGGGSGGGSEVQLVESGGGVVQPGGSLRLSCAASGFTFRSFGMSWVRQAPGKGPEWVSSISGSGSDTLYADSVKGRFTISRDNSKNTLYLQMNSLRPEDTALYYCTIGGSLSRSSQGTLVTVSSA
notes: Bivalent ISVD construct: anti-TCR and anti-albumin; also called TCE01-9GS-ALB23002-A
B1 was tested. Which IC50 [1] did it give?
Its IC50 is 190 nM.

And the IC50 [2]?
The IC50 was 250 nM.

And the Kd [3]?
The Kd was 11 nM.

B2: A022600373 (bispecific antibody)
chain: DVQLVESGGGVVQPGGSLRLSCVASGYVHKINFYGWYRQAPGKEREKVAHISIGDQTDYADSAKGRFTISRDESKNTVYLQMNSLRPEDTAAYYCRALSRIWPYDYWGQGTLVTVSSGGGGSGGGGSGGGGSGGGGSEVQLVESGGGVVQPGGSLRLSCAASGFTFRSFGMSWVRQAPGKGPEWVSSISGSGSDTLYADSVKGRFTISRDNSKNTLYLQMNSLRPEDTALYYCTIGGSLSRSSQGTLVTVSSGGC
modifications: pHAb dye on the C-terminal GGC (degree of labeling 1)
notes: also called TCE01-20GS-ALB23002-GGC
Does B2 bind [4]?
Result: no binding

B3: A0226018C08 (VHH)
VHH: EVQLVESGGGLVQPGGSLRLSCVASGFTFSSFAMTWVRRPPGKGLEWVATITNGGVTSYRDSVKGRFTISRDNAKNTLYLEMTSLNPEDTAVYICANARRTGPRAPTDIGSYRGQGTLVTVSS
notes: Parental ISVD; also called A02260018C08; anti-GPC3 ISVD
Which “Ratio MFI hGPC3 CHO/CHO” value [5] does the source give for B3 here?
Its value is 159.

What about the EC50 [6] of the same binder?
Its EC50 is 0.696 nM.

What about the EC50 [7] of the same binder?
Its EC50 is 0.49 nM.

And the EC50 [8]?
The EC50 was 0.915 nM.

What about the “Ratio MFI cyGPC3 CHO/CHO” value [9] of the same binder?
Its value is 19.9.

What about the koff [10] of the same binder?
Its koff is 0.00097 s⁻¹.

And the koff [11]?
The koff was 0.0011 s⁻¹.

B4: ALB223 (VHH)
VHH: EVQLVESGGGVVQPGGSLRLSCAASGFTFRSFGMSWVRQAPGKGPEWVSSISGSGSDTLYADSVKGRFTISRDNSKNTLYLQMNSLRPEDTALYYCTIGGSLSRSSQGTLVTVSS
notes: also called ALB23002-A
Which results are given for B4?
Kd [12]: 0.57 nM; Kd [13]: 5.3 nM; Kd [14]: 0.88 nM

B5: A0226015A08 (VHH)
VHH: EVQLVESGGGLVQAGGSLRLSCVASGSIFRSVFSSSTMEWYRQPPGKKRELVARIAPGDGTNYGALYADSVKGRFTISRDDAKKTVDLQMNSLKPEDTGVYFCASGVAWGQGTLVTVSS
notes: Parental ISVD; also called A02260015A08; anti-GPC3 ISVD
For B5, which “Ratio MFI hGPC3 CHO/CHO” value [5] is on record?
The value was 58.2.

What about the EC50 [15] of the same binder?
Its EC50 is 7.5 nM.

What about the EC50 [16] of the same binder?
Its EC50 is 7.8 nM.

And the “Ratio MFI cyGPC3 CHO/CHO” value [9]?
Its value is 13.7.

What about the koff [10] of the same binder?
Its koff is 0.00033 s⁻¹.

And the EC50 [17]?
Its EC50 is 6.6 nM.

What about the koff [11] of the same binder?
The koff was 0.0004 s⁻¹.
